In PMC12331936, “Structural Insights into the Protein Mannosyltransferase from Mycobacterium tuberculosis reveal a WW-Domain-Like Protein Motif in Bacteria” (Communications Biology, 2025):
Positions count from the first letter of the chain named. Names and notes keep the numbering of the source.

B1: MtPMT: M. tuberculosis protein-O-mannosyltransferase, wild type (protein, UniProt P9WN05 1-522, looked up)
Polyprenol-phosphate-mannose-- …: MTARPPESCVLAKDRPEEPVVPVVSPGPLVPVADFGPLDRLRGWIVTGLITLLATVTRFLNLGSLTDAGTPIFDEKHYAPQAWQVLNNHGVEDNPGYGLVVHPPVGKQLIAIGEAIFGYNGFGWRFTGALLGVVLVALVVRIVRRISRSTLVGAIAGVLLICDGVSFVTARTALLDGFLTFFVVAAFGALIVDRDQVRERMHIALLAGRSAATVWGPRVGVRWWRFGAGVLLGLACATKWSGVYFVLFFGAMALAFDVAARRQYQVQRPWLGTVRRDVLPSGYALGLIPFAVYLATYAPWFASETAIDRHAVGQAVGRNSVVPLPDAVRSLWHYTAKAFHFHAGLTNSAGNYHPWESKPWTWPMSLRPVLYAIDQQDVAGCGAQSCVKAEMLVGTPAMWWLAVPVLAYAGWRMFVRRDWRYAVVLVGYCAGWLPWFADIDRQMYFFYAATMAPFLVMGISLVLGDILYHPGQGSERRTLGLIVVCCYVALVVTNFAWLYPVLTGLPISQQTWNLEIWLPSWR
B2: D74A (protein, UniProt P9WN05 1-522, looked up, variant D74A)
Polyprenol-phosphate-mannose-- …: B1 Polyprenol-phosphate-mannose-- … with D74A
B3: W362A (protein, UniProt P9WN05 1-522, looked up, variant W362A)
Polyprenol-phosphate-mannose-- …: B1 Polyprenol-phosphate-mannose-- … with W362A
B4: phenylalanine was substituted for Y444: MtPMT with phenylalanine substituted for Y444 (protein, UniProt P9WN05 1-522, looked up, variant Y444F)
Polyprenol-phosphate-mannose-- …: B1 Polyprenol-phosphate-mannose-- … with Y444F
B5: R441A (protein, UniProt P9WN05 1-522, looked up, variant R441A)
Polyprenol-phosphate-mannose-- …: B1 Polyprenol-phosphate-mannose-- … with R441A
B6: Y371A-L392A (protein, UniProt P9WN05 1-522, looked up, variant Y371A L392A)
Polyprenol-phosphate-mannose-- …: B1 Polyprenol-phosphate-mannose-- … with Y371A, L392A
B7: L392A (protein, UniProt P9WN05 1-522, looked up, variant L392A)
Polyprenol-phosphate-mannose-- …: B1 Polyprenol-phosphate-mannose-- … with L392A
B8: D74E (protein, UniProt P9WN05 1-522, looked up, variant D74E)
Polyprenol-phosphate-mannose-- …: B1 Polyprenol-phosphate-mannose-- … with D74E
B9: R441L (protein, UniProt P9WN05 1-522, looked up, variant R441L)
Polyprenol-phosphate-mannose-- …: B1 Polyprenol-phosphate-mannose-- … with R441L
B10: S365T (protein, UniProt P9WN05 1-522, looked up, variant S365T)
Polyprenol-phosphate-mannose-- …: B1 Polyprenol-phosphate-mannose-- … with S365T
B11: E74D75: di-substitution of D74E75 with the reversed doublet (protein, UniProt P9WN05 1-522, looked up, variant D74E E75D)
Polyprenol-phosphate-mannose-- …: B1 Polyprenol-phosphate-mannose-- … with D74E, E75D
B12: D176E (protein, UniProt P9WN05 1-522, looked up, variant D176E)
Polyprenol-phosphate-mannose-- …: B1 Polyprenol-phosphate-mannose-- … with D176E

Key:
EL4Cter* peptide = assay type: binding; details: EL4Cter* 35 µM; increasing concentration of Z^x95; mean of three independent measurements
MtPMT [1] = details: in vivo (M. smegmatis cell assay); cited from earlier work
PhoA = assay type: cell-based, E. coli
FasC^His = assay type: cell-based, M. smegmatis
MtPMT [2] = assay type: cell-based; details: MtPMT mutant expressed in M. smegmatis ΔMsPMT; ELLA, relative to WT (100%) and No PMT (0%)

Molecule | FasC^His mannosylation / MtPMT enzymatic activity (ConA binding) (MtPMT [2]) | also measured
Cc1cc(-n2c(C)cc(/C=C/C(=O)N3CCCC3c3cccs3)c2C)no1 (stereo not shown) [Z^x95, (2E)-3-[2,5-dimethyl-1-(5-methyl-1,2-oxazol-3-yl)-1H-pyrrol-3-yl]-1-[2-(thiophen-2-yl)pyrrolidin-1-yl]prop-2-en-1-one] |  | effect on thermal denaturation curves of EL4Cter* (EL4Cter* peptide): dose-dependent deviation of EL4Cter* thermal denaturation curves; effect on FasC mannosylation in vivo (MtPMT [1]): reduce FasC mannosylation in vivo
B1 |  | phosphatase activity on solid medium (chromogenic substrate) (PhoA): remained uncolored; number of FasC glycosylation states (FasC^His): 18
B2 | complete lack of mannosylation | 
B3 | absence of Fasc^His mannosylation | reduction of expression of mutated enzyme (PhoA activity of PhoA fusion) (PhoA): about 50%
B4 | almost half of the FasC mannosylation level remained | 
B5 | completely abolished FasC mannosylation | 
B6 | complete abolition of the mannosyl transferase activity | 
B7 |  | reduction (drop) of apparent FasC mannosylation level (MtPMT [2]): 73%
B8 | only marginally restored enzyme activity | 
B9 | completely abolished FasC mannosylation | 
B10 | only partially impacted FasC mannosylation | 
B11 | failed to restore Fasc^His mannosylation | 
B12 | slightly restored mannosylation activity | 
